Source: US20210187091A1 (DUKE UNIVERSITY, published 2021)
Changes are numbered by the printed parent chain.

T1: Man9-V3 glycopeptide (HIV-1 clade B JRFL, Man9GlcNAc2 at N301 and at N332; disulfide bridge between C296 and C331 (cyclized); biotin tag)
T1 construct: 30-amino acid synthetic V3 glycopeptide based on the clade B JRFL mini-V3 construct (residues 305-320 deleted); captured by its biotin on streptavidin sensors, or tetramerized on streptavidin for sorting; also called Man-V3 glycopeptide; Man9-V3-biotin
T1 peptide: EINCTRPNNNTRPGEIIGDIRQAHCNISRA

B1: DH270.IA3 (antibody, V domains shown)
VH: EVQLVESGPELKEPGASVKVSCKASGYTFTDYYIHWVRQAPGQGLEWMAWINPTTGRSSFARGFQGRVIMTRETSVSTAYMELRRLRSDDTAVYYCAKAGYIALYVDYSGYPNFNSWGQGTLVTVSS
VL: QSALTQPASVSGSPGQSITISCTGTSYDVGSYNLVSWYQQHPGKAPKLIIYEVSQWPSGVSKRFSGSKSGNTASLTISGLQAEDEAHYYCCSYAGSSTVIFGGGTSLTVL
B2: DH270.IA4 (antibody, V domains shown)
VH: QVQLVQSGAEVKKPGASVKVSCKASGYTFTDYYIHWVRQAPGQGLEWMGWINPNTGRTNYAQKFQGRVTMTRDTSISTAYMELSRLRSDDTAVYYCARGGWIGLYYDSSGYPNFDYWGQGTLVTVSS
VL: B1 VL with I49M, Q55K, W56R, K62N, H87D, S106K
notes: Inferred intermediate, recombinant IgG; copies: 2 + 2
B3: DH270.IA2 (antibody, V domains shown)
VH: B2 VH with V11M, R87T, R98T
VL: B1 VL with L48Y, I49M, S54N, Q55K, W56R, K62N, H87D, S106K
notes: Inferred intermediate, recombinant IgG
B4: DH270.UCA (antibody, V domains shown)
VH: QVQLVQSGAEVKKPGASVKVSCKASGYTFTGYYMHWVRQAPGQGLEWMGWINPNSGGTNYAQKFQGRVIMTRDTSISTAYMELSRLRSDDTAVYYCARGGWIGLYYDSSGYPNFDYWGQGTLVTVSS
VL: B1 VL with Y27S, I49M, Q55K, W56R, K62N, H87D, S106K
notes: also called UCA4; DH270UCA4
B5: DH270.6 (antibody, V domains shown)
VH: QVQLVQSGAQMKNPGASVKVSCAPSGYTFTDFYIHWLRQAPGQGLQWMGWMNPQTGRTNTARNFQGRVIMTRDTSIGTAYMELRSLTSDDTAIYYCTTGGWISLYYDSSYYPNFDHWGQGTLLTVSS
VL: TSLLTQPASVSGSPGQSITISCTGTKYDVGSHDLVSWYQQYPGKVPKYMIYEVNKRPSGVSNRFSGSKSGNTASLTISGLRAEDEADYYCCSFGGSATVVCGGGTKVTVL
notes: Recombinant IgG

Key:
Man9-V3 glycopeptide [1] = molecular target: T1, Man9-V3 glycopeptide; test: BLI, biotinylated Man9-V3 on streptavidin sensors, antibody in solution
[2] = molecular target: T2, cell surface membrane expressed CH848 TF Env trimer (CHO cells) (HIV-1 clade C (CH848 …)); test: flow cytometry on CHO cells expressing CH848 TF Env trimer
T2 construct: also called cell surface membrane expressed gp160 trimers; CH848 Env trimer expressed on the cell surface of CHO cells

Man9-V3 glycopeptide [3] = molecular target: T1, Man9-V3 glycopeptide; test: BLI, biotinylated Man9-V3 on streptavidin sensors, antibody in solution, bivalent avidity model
Experimental: Kinetics analyses were performed by global curve fitting using bivalent avidity model and as described in methods (“Affinity measurements” section).
Antibody binding kinetic rate constants (ka, kd) of the Man9-V3 glycopeptide and its aglycone form (16) were measured by Bio-layer Interferometry (BLI, ForteBio Octet Red96) measurements. The BLI assay was performed using streptavidin coated sensors (ForteBio) to capture either biotin-tagged Man₉-V3 glycopeptide or Aglycone-V3 peptide. The V3 peptide immobilized sensors were dipped into varying concentrations of antibodies following blocking of sensors in BSA (0.1%). Antibody concentrations ranged from 0.5 to 150 μg/mL and non-specific binding interactions were subtracted using the control anti-RSV Palivizumab (Synagis) mAb. Rate constants were calculated by global curve fitting analyses to the Bivalent Avidity model of binding responses with a 10 min association and 15 min dissociation interaction time. The dissociation constant (Kd) values without avidity contribution were derived using the initial components of the association and dissociation rates (ka1 and kd1) respectively.

Row | Binder | binding result [2] | other results
1 | B1 |  | Kd (Man9-V3 glycopeptide [1]): > 10000 nM
2 | B2 | no binding (tested: 5 µg/mL) | 
3 | B3 | no binding (tested: 5 µg/mL) | 
4 | B4 | no binding (tested: 5 µg/mL) | 
5 | B5 |  | Kd (Man9-V3 glycopeptide [3]): 188 nM
